According to paper PMC6327041, “Histone H3 binding to the PHD1 domain of histone demethylase KDM5A enables active site remodeling” (Nature Communications, 2019):
Changes are numbered by the printed parent chain. Numbers in names are those of the source. Where no end group is shown, it is not given here. 5‑FAM = 5-carboxyfluorescein; Me3 = trimethyl-lysine

T1: GST-PHD1 (V291-K347) of KDM5A (human, UniProt P29375 291-347)
T1 construct: PHD1 domain of histone demethylase KDM5A, human, residues V291-K347; Cloned into pET41a; the vector may add further tags (surmise); also called V291-K347 PHD1; PHD1_(KDM5A); source: E. coli BL21(DE3), purified (Glutathione Sepharose 4B, Superdex 75 SEC); not shown: GST, N-terminal, kept
T1 sequence (looked up): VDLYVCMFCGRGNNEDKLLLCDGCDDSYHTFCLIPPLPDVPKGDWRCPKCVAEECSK

T2: GST-PHD1 (S287-K347) of KDM5A (human, UniProt P29375 287-347)
T2 construct: PHD1 domain of histone demethylase KDM5A, human, residues S287-K347; Cloned into pET41a; the vector may add further tags (surmise); also called S287-K347 PHD1; GST-PHD1 (Ser287-Lys347); source: E. coli BL21(DE3), purified (Glutathione Sepharose 4B, Superdex 75 SEC); not shown: GST, N-terminal, kept
T2 sequence (looked up): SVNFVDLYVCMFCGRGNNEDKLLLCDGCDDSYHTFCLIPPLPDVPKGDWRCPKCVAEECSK

T3: GST-PHD1 (S287-K347) D292A of KDM5A (human, UniProt P29375 287-347, D292A)
T3 construct: PHD1 domain of histone demethylase KDM5A, human, residues S287-K347 with D292A; Cloned into pET41a; the vector may add further tags (surmise); also called S287-K347 PHD1 D292A; PHD1 D292A; source: E. coli BL21(DE3), purified (Glutathione Sepharose 4B, Superdex 75 SEC); not shown: GST, N-terminal, kept
T3 sequence (looked up): T2 sequence (looked up) with D6A

T4: KDM5A_(1-797) (human, UniProt P29375 1-797)
T4 construct: histone demethylase KDM5A, human, residues 1-797; Cloned into pFASTBAC HTA; the His tag was removed with TEV protease; also called WT KDM5A_(1-797); KMD5A; source: Sf21 (baculovirus), purified (cobalt resin, TEV cleavage, S200 SEC); not shown: His tag, N-terminal, cleaved
T4 sequence (looked up): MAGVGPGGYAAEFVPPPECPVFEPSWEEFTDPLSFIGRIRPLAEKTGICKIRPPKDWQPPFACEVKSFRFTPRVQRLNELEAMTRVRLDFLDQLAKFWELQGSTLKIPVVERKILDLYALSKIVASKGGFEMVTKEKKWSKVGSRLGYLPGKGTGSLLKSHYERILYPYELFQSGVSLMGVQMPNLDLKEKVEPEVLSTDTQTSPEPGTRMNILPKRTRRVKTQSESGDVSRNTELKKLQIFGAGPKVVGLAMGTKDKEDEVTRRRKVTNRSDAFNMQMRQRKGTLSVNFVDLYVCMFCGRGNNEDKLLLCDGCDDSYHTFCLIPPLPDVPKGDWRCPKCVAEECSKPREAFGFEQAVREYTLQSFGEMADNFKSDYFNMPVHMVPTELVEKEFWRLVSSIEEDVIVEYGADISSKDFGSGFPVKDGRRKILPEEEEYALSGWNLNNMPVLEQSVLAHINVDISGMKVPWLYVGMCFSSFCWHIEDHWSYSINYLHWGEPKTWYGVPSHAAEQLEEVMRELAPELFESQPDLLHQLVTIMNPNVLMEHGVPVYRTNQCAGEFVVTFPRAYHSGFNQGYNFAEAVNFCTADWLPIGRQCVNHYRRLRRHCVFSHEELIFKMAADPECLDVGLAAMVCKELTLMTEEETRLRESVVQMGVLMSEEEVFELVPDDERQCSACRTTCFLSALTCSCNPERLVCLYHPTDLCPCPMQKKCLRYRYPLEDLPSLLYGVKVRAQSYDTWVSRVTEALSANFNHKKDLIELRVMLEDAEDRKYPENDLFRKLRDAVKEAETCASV

B1: 5-carboxyfluorescein (5-FAM) conjugated H3 10mer peptide (peptide, UniProt P68431 2-11, looked up)
peptide: ARTKQTARKS-{5‑FAM}
notes: histone H3 N-terminal tail, 10mer Ala1-Ser10, unmodified; also called H3K4me0; C-terminal fluorescently labeled H3 peptide
B2: H3K4me3 10mer peptide (peptide, UniProt P68431 2-11, looked up)
peptide: ARTK(Me3)QTARKS
notes: histone H3 N-terminal tail, 10mer Ala1-Ser10; also called tri-methylated H3K4 peptide
B3: H3K4A 10mer peptide (peptide, UniProt P68431 2-11, looked up)
peptide: ARTAQTARKS
notes: histone H3 N-terminal tail, 10mer Ala1-Ser10 with K4A
B4: unmodified H3 10mer effector peptide (H3 Ala1-Ser10) (peptide, UniProt P68431 2-11, looked up)
peptide: ARTKQTARKS
notes: histone H3 N-terminal tail, 10mer Ala1-Ser10, unmodified, unlabelled; also called H3 10mer peptide; PHD1-specific H3 10mer peptide

Experiments:
Details in all cases: both partners purified
[1] = target: T1, GST-PHD1 (V291-K347) of KDM5A; assay: fluorescence polarisation; direct FP: 10 nM C-terminal fluorescently labeled H3 peptide with varying concentrations of GST-PHD1
[2] = target: T2, GST-PHD1 (S287-K347) of KDM5A; assay: as above
[3] = target: T3, GST-PHD1 (S287-K347) D292A of KDM5A; assay: as above
[4] = target: T1, GST-PHD1 (V291-K347) of KDM5A; assay: fluorescence polarisation; competition-based FP: 2 µM GST-PHD1 with 10 nM C-terminal fluorescently labeled H3 peptide and different concentrations of unlabeled competitor peptide
[5] = target: T2, GST-PHD1 (S287-K347) of KDM5A; assay: as above
[6] = target: T3, GST-PHD1 (S287-K347) D292A of KDM5A; assay: as above
KDM5A_(1-797) = target: T4, KDM5A_(1-797); assay: HDX-MS; KDM5A_(1-797) with 50 µM FeSO4 and 100 µM N-OG, with 100 µM H3 10mer effector peptide against apo; 40 mM HEPES, 50 mM KCl, pH 7.9, 4 °C

Binder	Kd [1] [µM]	Kd [2] [µM]	Kd [3] [µM]	Kd [4] [µM]	Kd [5] [µM]	Kd [6] [µM]	binding result (KDM5A_(1-797))
B1	1.89 ± 0.16	0.68 ± 0.04	5.2 ± 0.26	–	–	–	–
B2	–	–	–	35.5 ± 7.5	34 ± 5.5	511 ± 281	–
B3	–	–	–	2.11 ± 0.27	1.58 ± 0.19	22.2 ± 5.7	–
B4	–	–	–	–	–	–	binds
